Measurements: patent publication US20240254222A1 (Bayer, published 2024)

T1: Human Semaphorin3A-Sema Domain, TPP-19068 (human, UniProt Q14563 21-569)
T1 construct: produced inhouse in HEK293-6E; also called human monovalent Sema3A domain
T1 sequence: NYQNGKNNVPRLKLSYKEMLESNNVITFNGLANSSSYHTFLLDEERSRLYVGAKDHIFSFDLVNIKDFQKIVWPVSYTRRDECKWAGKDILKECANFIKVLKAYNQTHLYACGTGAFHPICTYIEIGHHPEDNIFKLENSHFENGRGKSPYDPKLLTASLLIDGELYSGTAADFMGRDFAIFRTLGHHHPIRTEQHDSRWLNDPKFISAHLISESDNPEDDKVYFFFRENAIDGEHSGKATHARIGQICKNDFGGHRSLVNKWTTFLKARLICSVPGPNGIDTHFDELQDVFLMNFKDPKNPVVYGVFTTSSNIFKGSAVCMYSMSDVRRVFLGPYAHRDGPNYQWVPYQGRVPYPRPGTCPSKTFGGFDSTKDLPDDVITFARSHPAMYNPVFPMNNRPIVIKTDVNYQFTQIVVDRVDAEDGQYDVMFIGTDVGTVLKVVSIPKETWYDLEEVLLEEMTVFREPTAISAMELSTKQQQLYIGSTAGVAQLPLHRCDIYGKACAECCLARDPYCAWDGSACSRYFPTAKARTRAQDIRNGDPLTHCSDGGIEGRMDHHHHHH


Key:
[1] = target: T2, Human Semaphorin3A-Fc (R&D Systems), TPP-13211 (human); assay: competition ELISA on coated TPP-13211, competitor biotinylated TPP-15374
T2 construct: R&D Systems 1250-S3; also called recombinant human Sema3A-Fc chimera
Procedure: For screening in a competition ELISA setup, human Sema3a (TPP-13211) was coated onto 384-well plates (Greiner bio-one, 781077) with a concentration of 0.5 μg/ml in coating buffer (Carbonate-Basis pH 9.6, Candor 121125) over night at 10° C. After washing the plates 3 times with 50 μl PBS 0.05% Tween the plates were blocked with 50 μl Smart Block® (Candor 113500) for 1 h at 20° C. and washed again 3 times as described.
Subsequently, 20 μl of pre-mixed antibody solution was added to the plates and incubate for 18 h at 10° C. […] The total concentration of the added antibody solution was 0.25 μg/ml. During the incubation time the antibodies bound to the plates in a competitive manner as they compete for the same epitope on the human Sema3A protein.
After subsequent washing with 50 μl PBS 0.05% Tween for 3 times, 20 μl of a Streptavidin-HRP solution (R&D Systems, DY998, 1:200 in PBS 0.05% Tween 10% Smart Block) were added and incubated for 1 h and 20° C. followed by subsequent washing 3 times with 50 μl PBS 0.05% Tween and addition of 20 μl Amplex Red solution (Invitrogen A12222, 1:1000 in NaP-buffer 50 mM pH7.6 with 1:10000 of 30% H2O2). After a final incubation for 20 min at 20° C. the signal was determined using an emission wavelength of 595 nm and excitation of 530 nm.

[2] = target: T1, Human Semaphorin3A-Sema Domain, …; assay: SPR, captured antibody, Sema3A domain analyte
Procedure: (§1) To assess the binding kinetics and affinity of anti-Sema3A antibodies as well as their species cross-reactivity profile, binding assays were conducted using surface plasmon resonance (SPR). Binding assays were performed on a Biacore T200 instrument or on a Biacore 8K+ instrument (Cytiva) at 25° C. using assay buffer HBS P+, 300 mM NaCl, 0.75 mM CaCl₂, 2.5 mM MgCl₂, 1 mg/ml BSA, 0.05% NaN₃. Antibodies were captured either via anti-human Fc IgGs (“Human antibody capture kit”, Order No. BR100839, Cytiva) or in case of Fc-tagged analytes by anti-human Fab IgGs (“Human Fab capture kit”, Order No. 28958325, Cytiva) covalently amine coupled to a Series S CM5 sensor chip (Cytiva). The amine coupling was carried out according to the manufacturer's instructions using 1-ethyl-3-(3-dimethylaminopropyl) carbodiimide hydrochloride (EDC), N-hydroxysuccinimide (NHS) and ethanolamine HCl, pH 8.5 (“Amine Coupling Kit” BR-1000-50, Cytiva.). For phage display hits Fc-tagged human and mouse Sema3A was used as analytes in a concentration range from 1.56-200 nM. Human, mouse, cynomolgus, rat, dog and pig monovalent Sema3A domain were used as analytes in a concentration series from […] in multi cycle kinetics mode or in 100 nM for binding analysis only. The sensor surface was regenerated with glycine pH 2.0 after each antigen injection. Obtained sensorgrams were double referenced (subtraction of reference flow cell signal and buffer injection) and were fitted to a 1:1 Langmuir binding model to derive kinetic data using the Biacore T200 Evaluation software.

[3] = target: T2, Human Semaphorin3A-Fc (R&D Systems), …; assay: cell-based or functional assay
[4] = target: T2, Human Semaphorin3A-Fc (R&D Systems), …; assay: cell-based or functional assay; remark: listed apart in the source
[5] = target: T1, Human Semaphorin3A-Sema Domain, …; assay: SPR, 100 nM TPP-19068, binding experiment
Procedure: as §1

T2 sequence (chain, as listed by the source limits assumed): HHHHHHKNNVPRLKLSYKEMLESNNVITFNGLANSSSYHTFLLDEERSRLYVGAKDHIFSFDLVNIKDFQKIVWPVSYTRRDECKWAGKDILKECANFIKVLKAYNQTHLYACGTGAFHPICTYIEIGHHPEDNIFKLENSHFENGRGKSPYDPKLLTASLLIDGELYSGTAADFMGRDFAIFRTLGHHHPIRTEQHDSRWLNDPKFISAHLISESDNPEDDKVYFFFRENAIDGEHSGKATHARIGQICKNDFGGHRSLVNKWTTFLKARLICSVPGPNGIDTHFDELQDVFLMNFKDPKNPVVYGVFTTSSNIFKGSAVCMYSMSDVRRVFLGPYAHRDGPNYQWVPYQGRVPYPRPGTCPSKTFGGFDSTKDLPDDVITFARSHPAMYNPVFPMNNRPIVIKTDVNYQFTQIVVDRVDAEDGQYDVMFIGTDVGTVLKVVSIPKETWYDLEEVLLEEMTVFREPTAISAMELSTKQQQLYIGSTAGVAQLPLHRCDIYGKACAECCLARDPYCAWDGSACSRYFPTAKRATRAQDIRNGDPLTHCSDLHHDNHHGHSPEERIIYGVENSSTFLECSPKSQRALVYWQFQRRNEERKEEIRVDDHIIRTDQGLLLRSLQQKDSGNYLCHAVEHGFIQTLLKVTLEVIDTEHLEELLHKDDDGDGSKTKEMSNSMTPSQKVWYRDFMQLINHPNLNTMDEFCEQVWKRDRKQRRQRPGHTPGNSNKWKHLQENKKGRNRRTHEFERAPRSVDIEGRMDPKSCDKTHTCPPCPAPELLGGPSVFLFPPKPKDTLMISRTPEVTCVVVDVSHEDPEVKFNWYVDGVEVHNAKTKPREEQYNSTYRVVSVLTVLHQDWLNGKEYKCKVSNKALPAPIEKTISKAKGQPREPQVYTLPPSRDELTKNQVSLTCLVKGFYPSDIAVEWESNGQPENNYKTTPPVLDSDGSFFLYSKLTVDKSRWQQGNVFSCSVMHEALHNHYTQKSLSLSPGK

VAL norm to TPP-9809 (1 to 1 ratio) [1]	VAL norm to TPP-9809 (1 to 5 ratio) [1]	Kd [2] [nM]	EC50 [nM], MCM assay [3] [nM]	EC50 (nM), GCC assay [4] [nM]	Kd [5] [nM]	Binder
0.49	0.18	0.052	–	–	–	TPP-26111 (antibody, human IgG1, lambda, V domains shown) VH: EVQLLESGGGLVQPGGSLRLSCAASGFTFDSYEMNWVRQAPGKGLEWVSGISWNSGWIDYADSVKGRFTISRDNSKNTLYLQMNSLRAEDTAVYYCARSGYSSSWFDPDFDYWGQGTLVTVSS VL: QSVLTQPPSVSGAPGQRVTISCTGSSSNIGAGYDVHWYQQLPGTAPKLLIYGNSNRPSGVPDRFSGSKSGTSASLAITGLQAEDEADYYCSSYAGPNPYVVFGGGTKLTVLG
0.39	0.26	0.052	–	–	–	TPP-25497 (antibody, human IgG1, lambda, V domains shown) VH: EVQLLESGGGLVQPGGSLRLSCAASGFDFDSYEMNWVRQAPGKGLEWVSGISWNSGWIDYADSVKGRFTISRDNSKNTLYLQMNSLRAEDTAVYYCARSGYSSSWFDPDFDYWGQGTLVTVSS VL: QSVLTQPPSVSGAPGQRVTISCTGSSSDIGAGYDVHWYQQLPGTAPKLLIYGNSNRPSGVPDRFSGSKSGTSASLAITGLQAEDEADYYCSSYEGINPYVVFGGGTKLTVLG
–	–	–	42.9	243	–	TPP-15051 (antibody, mouse IgG1) heavy: EVQLLESGGGLVQPGGSLRLSCAASGFTFSSYPMGWVRQAPGKGLEWVAGIDDDGDSDTRYAPAVKGRATISRDNSKNTVYLQMNSLRAEDTAVYYCAKHTGIGANSAGSIDAWGQGTLVTVSSAKTTPPSVYPLAPGSAAQTNSMVTLGCLVKGYFPEPVTVTWNSGSLSSGVHTFPAVLQSDLYTLSSSVTVPSSTWPSETVTCNVAHPASSTKVDKKIVPRDCGCKPCICTVPEVSSVFIFPPKPKDVLTITLTPKVTCVVVDISKDDPEVQFSWFVDDVEVHTAQTQPREEQFNSTFRSVSELPIMHQDWLNGKEFKCRVNSAAFPAPIEKTISKTKGRPKAPQVYTIPPPKEQMAKDKVSLTCMITDFFPEDITVEWQWNGQPAENYKNTQPIMDTDGSYFVYSKLNVQKSNWEAGNTFTCSVLHEGLHNHHTEKSLSHSPGK light: SYELTQPPSVSVSPGQTARITCSGGGSYTGSYYYGWYQQKPGQAPVTVIYYNNKRPSDIPERFSGSLSGTTNTLTISGVQAEDEADYYCGSADNSGDAFGTGTKVTVLGQPKSSPSVTLFPPSSEELETNKATLVCTITDFYPGVVTVDWKVDGTPVTQGMETTQPSKQSNNKYMASSYLTLTARAWERHSSYSCQVTHEGHTVEKSLSRADCS

Continued, binder first:

Binder	VAL norm to TPP-9809 (1 to 1 ratio) [1]	VAL norm to TPP-9809 (1 to 5 ratio) [1]	Kd [2] [nM]	EC50 [nM], MCM assay [3] [nM]	EC50 (nM), GCC assay [4] [nM]	Kd [5] [nM]
TPP-25448 (antibody, human IgG1, lambda, V domains shown) VH: EVQLLESGGGLVQPGGSLRLSCAASGFTFDSYEMNWVRQAPGKGLEWVSGISWNSGWIDYADSVKGRFTISRDNSKNTLYLQMNSLRAEDTAVYYCARSGYSSSWFDPDFDYWGQGTLVTVSS VL: QSVLTQPPSVSGAPGQRVTISCTGSSSDIGAGYDVHWYQQLPGTAPKLLIYGNSNRPSGVPDRFSGSKSGTSASLAITGLQAEDEADYYCQSYAGINPYVVFGGGTKLTVLG	0.47	0.19	0.053	–	–	–
TPP-25655 (antibody, human IgG1, lambda, V domains shown) VH: EVQLLESGGGLVQPGGSLRLSCAASGFDFSSYEMNWVRQAPGKGLEWVSGISWNSGWIDYADSVKGRFTISRDNSKNTLYLQMNSLRAEDTAVYYCARSGYSSSWFDPDFDYWGQGTLVTVSS VL: QSVLTQPPSVSGAPGQRVTISCTGSSSNIGAGYDVHWYQQLPGTAPKLLIYGASNRPSGVPDRFSGSKSGTSASLAITGLQAEDEADYYCSSYEGPNPYVVFGGGTKLTVLG	0.39	0.23	0.049	–	–	–
TPP-31357 (Fab, V domains shown, Fab heavy chain entry carries myc and His tags; also called Fab of 3H4 Univ Ramot) V domain 1: EVQLLESGGGLVQPGGSLRLSCAASGFTFRSYAVHWVRQAPGKGLEWVSSTEGSGVGTSYTDSVKGRFTISRDNSKNTLYLQMNSLRAEDTAVYYCARMLGGGNPLDYLDYWGQGTLVTVSS V domain 2: QSVLTQPPSASGTPGQRVTISCSGSSSNLGEGYDVHWYQQLPGKAPKLLIYYSDFRPSGVSDRFSGSKSGTSASLAISGLQSEDEADYYCAAWDDSLSSQVFGGGTQVTVLG	–	–	–	–	–	0.35
